# Laboratory results taken from patent US20240247080A1, “GLP1/GIP/NPY2 RECEPTOR TRIPLE AGONISTS” (Boehringer Ingelheim International GmbH, priority 2022, published 2024).
# Substitutions are numbered along the chain they refer to. Starred links: 1 amine or outer side, 2 acyl side, 3 side chain; linkers in the order of their positions; H or OH if unused. Non-standard residues stand in square brackets, D forms with d. Groups on a side chain read outwards from the residue. No end group written: not given here. *: point of attachment. C18 diacid = O=C(O)CCCCCCCCCCCCCCCCC(=O)*; γGlu = O=C(O)[C@H](CCC(=O)[*:2])N[*:1]; εLys = N[C@@H](CCCCN[*:1])C(=O)[*:2]; Aib = CC(C)(N)C(=O)O; Ahx = NCCCCCC(=O)O
# T1: human GIP receptor (human, UniProt P48546 22-466)
# T1 sequence (looked up): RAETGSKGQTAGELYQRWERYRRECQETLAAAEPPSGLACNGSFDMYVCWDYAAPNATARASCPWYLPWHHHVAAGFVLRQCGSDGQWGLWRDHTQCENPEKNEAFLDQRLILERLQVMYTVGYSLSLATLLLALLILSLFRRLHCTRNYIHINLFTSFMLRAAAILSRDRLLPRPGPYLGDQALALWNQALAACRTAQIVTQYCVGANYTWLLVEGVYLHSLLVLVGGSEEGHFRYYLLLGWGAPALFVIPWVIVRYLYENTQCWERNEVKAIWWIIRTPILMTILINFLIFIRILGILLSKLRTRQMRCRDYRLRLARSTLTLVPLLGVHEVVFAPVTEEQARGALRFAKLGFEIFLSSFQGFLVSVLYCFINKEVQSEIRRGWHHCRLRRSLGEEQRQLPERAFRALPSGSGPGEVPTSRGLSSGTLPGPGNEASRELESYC
# T2: human neuropeptide Y2 receptor (human, UniProt P49146 1-381)
# T2 sequence (looked up): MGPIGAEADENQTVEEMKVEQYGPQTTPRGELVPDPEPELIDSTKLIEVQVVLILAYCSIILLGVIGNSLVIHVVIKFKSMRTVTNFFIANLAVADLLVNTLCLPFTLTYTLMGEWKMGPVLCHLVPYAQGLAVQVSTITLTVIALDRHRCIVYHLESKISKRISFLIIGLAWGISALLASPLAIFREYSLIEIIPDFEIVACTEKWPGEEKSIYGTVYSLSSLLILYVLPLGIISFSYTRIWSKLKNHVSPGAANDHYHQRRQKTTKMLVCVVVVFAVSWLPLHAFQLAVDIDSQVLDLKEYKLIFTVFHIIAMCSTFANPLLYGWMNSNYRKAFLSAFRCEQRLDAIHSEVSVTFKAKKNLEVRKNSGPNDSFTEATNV
# B1: Compound 131 (peptide)
# peptide: YXEGTFTSDYSIXLERQAQXAFVEWLIKGGPSSGASLRHYYNWLTRQRY
# modifications: Aib at 2, 13, 20; K28 side chain: C20DA-gGlu-gGlu-gGlu-gGlu-gGlu-gGlu-eLys; C-terminal NH2
# B2: Compound 141 (peptide)
# peptide: B1 peptide with R16K, A21E, E24Q, S33E
# modifications: Aib at 2, 13, 20; K28 side chain: C18DA-gGlu-gGlu-gGlu-gGlu-gGlu; C-terminal NH2
# B3: Compound 132 (peptide)
# peptide: B1 peptide with R16K, L37I
# modifications: Aib at 2, 13, 20; K28 side chain: C20DA-gGlu-gGlu-gGlu-gGlu-gGlu-gGlu-eLys; C-terminal NH2
# B4: Compound 140 (peptide)
# peptide: B1 peptide with R16K, G34P
# modifications: Aib at 2, 13, 20; K28 side chain: C18DA-gGlu-gGlu-gGlu-gGlu-gGlu-OEG-OEG; C-terminal NH2
# B5: Compound 137 (peptide)
# peptide: B1 peptide with R16K, L44X
# modifications: Aib at 2, 13, 20; Tle at 44; K28 side chain: C20DA-gGlu-gGlu-gGlu-gGlu-gGlu-gGlu-eLys; C-terminal NH2
# B6: Compound 136 (peptide)
# peptide: B1 peptide with R16K, Q17A
# modifications: Aib at 2, 13, 20; K28 side chain: C20DA-gGlu-gGlu-gGlu-gGlu-gGlu-gGlu-eLys; C-terminal NH2
# B7: Compound 134 (peptide)
# peptide: B1 peptide with R16K, S33E, A35Q, L37I
# modifications: Aib at 2, 13, 20; K28 side chain: C20DA-gGlu-gGlu-gGlu-gGlu-gGlu-gGlu-eLys; C-terminal NH2
# B8: Compound 133 (peptide)
# peptide: B1 peptide with R16K, Y41X
# modifications: Aib at 2, 13, 20; Tle at 41; K28 side chain: C20DA-gGlu-gGlu-gGlu-gGlu-gGlu-gGlu-eLys; C-terminal NH2
# B9: Compound 135 (peptide)
# peptide: B1 peptide with R16K, W25Y
# modifications: Aib at 2, 13, 20; K28 side chain: C20DA-gGlu-gGlu-gGlu-gGlu-gGlu-gGlu-eLys; C-terminal NH2
# Molecular target: human GLP-1 receptor (human, UniProt P43220 24-463)
# Test: cell-based or functional assay
Binder,EC50 CreLuc hGLP1R 0.5% hP [nM],EC50 CreLuc hGLP1R 100% hP [nM]
B1,0.11,2.84
B2,0.25,7.93
B3,0.14,3.76
B4,0.12,3.11
B5,0.12,2.22
B6,0.32,4.19
B7,0.1,3.94
B8,0.16,3.01
B9,0.24,2.3
Y[Aib]EGTFTSDYSI[Aib]LEKQAQ[Aib]AFVQWLIK([Ahx-γGlu-γGlu-γGlu-γGlu-γGlu-γGlu-C18 diacid])GGPSSGASLRHYYNWLTRQRY-NH2 [Compound 139],0.07,1.62
Y[Aib]EGTFTSDYSI[Aib]LEKQAE[Aib]AFVQWLIK([εLys-γGlu-γGlu-γGlu-γGlu-γGlu-C18 diacid])GGPSEGASLRHYYNWLTRQRY-NH2 [Compound 138],0.19,5.09

# Molecular target: T1, human GIP receptor
# Test: cell-based or functional assay
Binder,EC50 CreLuc hGIPR 0.5% hP [nM],EC50 CreLuc hGIPR 100% hP [nM]
B1,0.35,2.94
B2,0.4,1.32
B3,0.22,2.07
B4,0.22,1.2
B5,0.28,1.5
B6,0.31,2.03
B7,0.09,0.83
B8,0.48,2.28
B9,0.11,1.07
Y[Aib]EGTFTSDYSI[Aib]LEKQAQ[Aib]AFVQWLIK([Ahx-γGlu-γGlu-γGlu-γGlu-γGlu-γGlu-C18 diacid])GGPSSGASLRHYYNWLTRQRY-NH2 [Compound 139],0.22,1.04
Y[Aib]EGTFTSDYSI[Aib]LEKQAE[Aib]AFVQWLIK([εLys-γGlu-γGlu-γGlu-γGlu-γGlu-C18 diacid])GGPSEGASLRHYYNWLTRQRY-NH2 [Compound 138],0.13,0.81

# Molecular target: T2, human neuropeptide Y2 receptor
# Test: cell-based or functional assay
Binder,EC50 CreLuc hNPY2R 0.5% hP [nM],EC50 CreLuc hNPY2R 100% hP [nM]
B1,18.2,71.5
B2,11.8,35.2
B3,11.3,45.4
B4,12.4,45.9
B5,60.2,93
B6,15.1,64.7
B7,10.1,40
B8,14.1,41.4
B9,8.4,21.5
Y[Aib]EGTFTSDYSI[Aib]LEKQAQ[Aib]AFVQWLIK([Ahx-γGlu-γGlu-γGlu-γGlu-γGlu-γGlu-C18 diacid])GGPSSGASLRHYYNWLTRQRY-NH2 [Compound 139],18.3,43.2
Y[Aib]EGTFTSDYSI[Aib]LEKQAE[Aib]AFVQWLIK([εLys-γGlu-γGlu-γGlu-γGlu-γGlu-C18 diacid])GGPSEGASLRHYYNWLTRQRY-NH2 [Compound 138],18.3,28.4
